# Experimental data: US20120316324A1 (UCB, published 2012)
# B1: 645Fv-652Fab (L-3xG4S, H-3xG4S) (bispecific antibody, V domains shown)
# VH: EVQLLESGGGLVQPGGSLRLSCAVSGIDLSNYAINWVRQAPGKGLEWIGIIWASGTTFYATWAKGRFTISRDSTTVYLQMNSLRAEDTAVYYCARTVPGYSTAPYFDLWGQGTLVTVSS
# VL: DIVMTQSPSSVSASVGDRVTITCQSSPSVWSNFLSWYQQKPGKAPKLLIYEASKLTSGVPSRFKGSGSGTDFTLTISSLQPEDFATYYCGGGYSSISDTTFGGGTKVEIK
# What was measured:
# [1] = target: T1, hIL13 (human, UniProt P35225 35-146, limits assumed); experiment: SPR Biacore 3000, construct captured, 20 nM hIL13 injected
# T1 construct: also called human IL-13
# [2] = target: T2, human serum albumin (human, UniProt P02768 25-609); experiment: SPR (Biacore 3000), construct captured by anti human CH1 antibody on CM5 chip, HSA as analyte
# T2 construct: also called HSA; HumanSA
# [3] = target: T1, hIL13; experiment: SPR (Biacore 3000), construct captured by anti human CH1 antibody on CM5 chip, hIL13 as analyte (single concentration 20 nM)
binder,measurement,setting,value
B1,Kd,[1],~0.1 nM
same,Kd,[2],1.22 nM
same,koff,[2],0.000311 s⁻¹
same,kon,[2],255000 M⁻¹ s⁻¹
same,Kd,[3],0.126 nM
same,koff,[3],0.000177 s⁻¹
same,kon,[3],1.4e+06 M⁻¹ s⁻¹
